Measured values published in the RNAGym collection of RNA variant scans (doi:10.1073/pnas.2313332121).

B1: TPR t1 (parent)
chain: GACCAAUCUGCCCUCAGAGCUCGAGAACAUCUUCGGAUGCAGAGGAGGCAGGCUUCGGUGGCGCGAUAGCGCCAACGUCCUCAACCUCCAAUGCAUCCCACCACAUGAUGAUGCCUGAAGAGCCUUGGUUUUUUG

Variants of: B1
Assay: polymerase ribozyme fitness, log enrichment relative to wild type (log ratio); higher = more active; in vitro selection for triplet polymerase activity
Outline: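 Mutant libraries were PCR-built and transcribed for each subunit of a heterodimeric triplet polymerase ribozyme and selected for one round in triplicate at −7 °C, frozen, before gel excision of extended constructs and streptavidin-bead capture. Input and output libraries were Illumina-sequenced, keeping genotypes with ≥10 input reads and ≥1 read per output. Fitness is a logarithmic ratio of genotype to wild-type enrichment, in base 2, using inverse-variance-weighted replicate averages.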

| Variant | polymerase ribozyme fitness (log ratio) |
| --- | --- |
| GACCAAUCUGCCCUCAGAGCUCGAGAACAUCUUCGGAUGCAGAGGAGGCAGGCUUCGGUGGCGCGAUAGCGCCAACGUCCUCAACCUCAAAUGCAUCCCACCACAUGAUGAUGCCUGAAGAGCAUUGGUUUUUUG [C89A C124A] | 0.985 |
| GACCAAUCUGCCCUCAGAGCUCGAGAACAUCUUCGGAUGCAGAGGAGGCAGGCUUCGGUGCCGCGAUAGCGCCAACGUCCUCAACCUCCAAUGCAUCCCACCACAUCAUGAUGACUGAUGAGCCUUGGUUUUUUG [G61C G107C C114A A119U] | -6.57 |
| GACCAAUCUGCCCUCAGAGCUCGAGAACAUCUUCGGAUGCAGGGGAGGCAGGCUUCGGUGGCGCGAUAGCGCCAACGUCCUCAACCUCCAAUGCAUCCCACCACAUGAUAAUGCCUGAAGAGCCUUGGUUUUUUG [A43G G110A] | -3.34 |
| GUCCAAUCUGCCCUCAGAGCUUGAGAACAUCUUCGGAUGCAGAGGAGGCAGGCUUCGGUGGCGCGAUAGCGCCAACGUCCUCAACUUCCAAUGCAUCCCACCACAUGAUUAUGCCUGAAGAGCCUUGGUUUUUUG [A2U C22U C86U G110U] | -6.04 |
| GACCAAUCUGCCCUCAGAGCUCGAGAACGUCUUCGGAUGCAGAGGAGGCAGGCUUCGGUGGCGCGAUAGCGCCAACGUCCUCAACCACCAAUGCAUCCCACCAGAUGAUGUUGCCUGAAGAGCCUUGGUUUUUUG [A29G U87A C104G A111U] | -4.03 |
| GACCAAUCUGCCCUCAGAGCUCGAGAACAACUUCGGAUGCAGAGGAGGCAGGCUUCGGUGGCGCGAUAGCGCCAACGUCCUCAACCUCCAAUGCAUCCCACCACAUGAUGACGCCUGAAGAGCCUUGGUUUUUUG [U30A U112C] | -2.73 |
| GACCAAUCUGCCCUCAGAGCUCGAGAACAUCUUCGGAUGCAGAGGAGGCAGGCUUCGGUGGCGCGAUAGCGCCAACGUCCUCAACCUCCAAUGAAUCCCACCACAUGAUGAUACCUGAAGAGCCUUGGUUUUUUG [C94A G113A] | -0.888 |
| GACCAAUCUGCCCUCAGAGCUCGAGAACAUCUUCGGAUGCAGGGGAGGCAGGCUUUGGUGGCGCGAUAGCGCCAACGUGCUCAACCUCCAAUGCAUCCCACCACAUGAUGGUGCCUGAAGAGCCUUGGUUUUUUG [A43G C56U C79G A111G] | -5.35 |
| GACCAAUCAGCCCUCAGAGCUCGAGAACAUCUUCGGAUGCAGAGGAGGCAGGCUUCGGUGGCGCGAUAGCGCCAACGUACUCAACCUCCAAUUCAUCCCAACACAUGAUGAUGCCUGAAGAGCCUUGGUUUUUUG [U9A C79A G93U C101A] | -2.59 |
| GACAAAUCUGCCCUCAGAGCUCGAGAACAUCUUCGGAUGCAGAGGCGGCAGGCUUCGGUGGCGUGAUAGCGCCAACGUCCUCAACCUCCAAUGCAUCCCACCACAUGAUGAUGACUGAAGAGCAUUGGUUGUUUG [C4A A46C C64U C114A C124A U131G] | -3.27 |
| GUCCAAUCUGCCCUCUGAGCUCGAGAACAUCUUCGGAUGCAGAGGAGGCAGGCUUCGGUGGCGCGAUAGCGCCAACGUCCUCAACCUCCAAUGCAACCCACCACAUGAUGAUGCCUGAAGAGCCUUGAUUUUUUG [A2U A16U U96A G128A] | -4.83 |
| GACCAAUCUGCCCUCAGAGCUGGAGAACAUCUUCGGAUGCACAGGAGGCAGGCUUCGGUGGCGCGAUAGCGCCAACGUCCUCAACCUCCAAUGCAUCCCACCACAUGAUGAUGCCUGAAGAGCCUUGGUUUUUUG [C22G G42C] | -3.87 |
| GACCCAUCUGCCCUCAGAGCUCGAGAACAUCUUCGGAUGCAGAGGAGGCAGGCUUCGGUGGCGCGAUAGCGACAACGUCCUCAACCUCCAAUGCAACCCACCACAUGAUGAUGCCUGAAGAGCCUUAGUUUUUUG [A5C C72A U96A G127A] | -2.31 |
| GACCAAUCUGCCCUCAGAGCUCGAGAACAUCUUCGGAUGCAGAUGAGGCAGGCUUCGGUGGCGCGAUAGCGCCAACAUCCUCAACCUCCAAUGCAUCCCAACACAUGAUGAUGCCUGAAGAGCCUUGGUUUUUUG [G44U G77A C101A] | -1.37 |
| GACCAAUCUGCCCUCAGAGCUCGAGAACAUCUUCGGAUGCAGAGGAGGCAGGCUUCGGUGGCGCGAUAGCGUCAACGUCCUCAACCUCCAAUGCAUCCCACCCCAUGAUGAUGCCUGAAGAGCCUUGGUUUUUUG [C72U A103C] | -4.5 |
| GACCAAUCUGUCCUGAGAGCUCGAGAACAUCUUCGGAUGCAGAGGAGGCAUGCUUCGGUGGCGCGAUAGCGCCAACGUCCUCAACCUCCAAUGCAUCCCACCACAUGAUGAUGCCUGAGGAGCCUUGGUUUUAUG [C11U C15G G51U A119G U133A] | -2.44 |
| GACCAAUCUACCCUCAGAGCUCGAGAACAUCUUCGGAUGCAGAGGAGGUAGGCUUCGGUGGCGCGAUAGCGCCAACGUCCUCAACCUCCAAUGCAUCCCACCACAUGAUGAUGCCUGAAGAGCCUUGGUUUUUUG [G10A C49U] | -0.363 |
| GACCAAUCUGCCCUCAGAGCUCGAGAACAUCUUCGGAUGCAGAAGAGGCAGGCUUCGGUGGCGCGAUAGCGCCAACGUCCUCAACCUCCAAUGCAUCCCACCACAUGAUUAUGCCUGAAGAGCCUUGGUUUUUUG [G44A G110U] | -2.5 |
| GACUAAUCUGCCCUCAGAGCUCGAGAACAUCUUCGGAUGCAGAGGAGGCAGGCUUCGGUGGCGCGAUAGCGCCAAGGUCCUCAACCUCCAAUGCAUCCCACCACAUGAUGAUGCCUGAAGAGACUUGGUUUUUUG [C4U C76G C123A] | -0.394 |
| GACCAAUCUGCCCUUAGAGCUCGAGAACAUCUUCGGAUGCAGAGGAGGCAGGCUUCGGUGGCGCGAUAGCGACAACGUCCUCCACCUCUAAUGCAUUCCACCACAUGAUGAUGCCUGAAGAGCCUUGGUUUUUUG [C15U C72A A83C C89U C97U] | -3.4 |
| GACCAGUCUGCCUUCAGAGCUCGAGAACAUCUUCGGAUGCAGAGGAGGCAGGCUUCGGUGGCGCGAUAGCGCCAACGUCCUCAACCUCCAAUGCAUCCCACUACAUGAUGAUGCCUGAAGAACCUUGGUUUUUUG [A6G C13U C102U G122A] | -2.62 |

| Variant | polymerase ribozyme fitness (log ratio) |
| --- | --- |
| GACCAAUCUGCUCUCAGAGCUCGAGAACAUCUUCGGAUGCAGAGGAGGAAGGCUUCGGUGGCGCGAUAGCGCCAAGGUCGUCAACCUACAACGCAUCCCACCACAUGAUGACGCCUGAAGAGCCUUGGUUUUUUG [C12U C49A C76G C80G C88A U92C U112C] | -7.46 |
| GACCAAUCUGCCCUCAGAGCUCGAGAACAUCUUCGGAUUCUGAGGAGGCAGGCUUCGGUGGCGCGAUAGCGCCAACGUCCUCAACCUCCAAUGCAUCCCACCAUAUGAUGAUGCCUGAAGAGACUUGGUUUUUUG [G39U A41U C104U C123A] | -2.95 |
| GACCAAUCUGCCCUCUGAGCUCGAGAACUUCUUCGGAUGCAGAGGAGGCAGGCAUCGGUGGCUCGAUAGCGCCAACGUCCUCAACCUCCAAUGCAUCCCACCACAUGAUGAUGCCUGAAGAGCCUUGGUUUUUUG [A16U A29U U54A G63U] | -3.53 |
| GACCAAUCUGCCCUCAGAGCUCGAGAACAUCUUCGGAUGCAGAGGACGCAGGCUUCGGUGGCGUGAUAGCGCCAACGUCCUCAACCUCCAAUGCAUCCCACCACAUGAUGAUGCCUGAAGAGCCUUGGUUUUUUG [G47C C64U] | -2.48 |
| GACCAAUCUGCCCUCAGAUCUCGAGAACAUCUUCGGAUGCAGAGGAGGCAGGCUUCGGUGGCGCGAUAGCGCAAACGUCUUCAACCUCCAAUGCAUCCCACCACAUGAUGACGACUGAAGAGCCUAGGUUUUUUG [G19U C73A C80U U112C C114A U126A] | -1.24 |
| GACCAAUCUGCCCUCAGAGCUCGAGAACAUCUUCGGAUGCAGAGGAGGCAGGCUUCGGUGGCGCGAUAGCGCCAACGUCCUCAACCUCCAAUGCAUCCCACCACAUGAUGAUGCCCGAAGAGCCUUGGUGUUUUG [U116C U130G] | -1.58 |
| GAUCAAUCUGCCCUCAGAGCUCGAGAACAUCUUCGGAUGCAGAGGAGCCAGGCUUCGGUGGCGCGAUAGCGCCAAAGUACUCAACCUCCAAUGCAUCCCAGCACAUGAUGAUGCCUGAAGAGCCUUGGUUUUUUG [C3U G48C C76A C79A C101G] | -4.45 |
| GACCAAUCUGCCCUCAGAGCUCGAGAACAUCUUCGGAUGCAGAGAAGGCAGGCUUCGGUGGCGCGAUAGCGCCAACGUCCUCAACCUCCAAUGCAUCCCACCACAUGAUGCUGCCUGAAGAGCCUUGGUUUUUUG [G45A A111C] | -0.541 |
| GACCAAUCUGCCCUCAGAGCGCGAGAACAUCUUCGGAUGCAAAGGAGGCAGGCUUCGGUGGCGCGAUAGCGCCAACGUCCUCAACCUCCAAUGCAUCCCACCACAUGAUGAUGCCUGAAGGGCCUUGGUUUUUUG [U21G G42A A121G] | -3.11 |
| GACCAAUCUGCCCUCAGAGCUCGAGAACAUCUUCGGAUGCAGAGGAGGCUGGCUUCGGUGGCGCGAUAGCGCAAACGUCGUCAAACUCCGAUGCAUCCCACCACAUGAUGAUGCCUGAAGAGCCUUUGUUUUUUG [A50U C73A C80G C85A A90G G127U] | -2.82 |
| GACCAAUCUGCUCUCAGAGCUCGAGAACAUCUUCGGAUGCAGAGGAGGCAGGCUUCGGUGGCGCGAUAGCGCCAACGUCCUCAACCUCCAAUGCAUCCCACCACAUGAAGAUGCCUGAAGAGCCUUGGUUUUUUG [C12U U109A] | -3.34 |
| GACCAAUCGGCCCUCAGAGCUCGAGAACAUCUUCGGAUGCAGAGGAGGCAGGCUUCGGUGGCGCGAUAGCGCCAACGUCCUCAACCUCCAAUGCAUCCCACCACAUGAUGAUGCCUGAAGAGCAUUGGUUGUUUG [U9G C124A U131G] | 1.79 |
| GACCAAUCUGCCGUCAGAGCUCGAGAACAUCUUCGUAUGCAGAGGAGGCAGGCUUCGGUAGCGCGAUAGCGCCAACGUCCUCAACCUCCAAUGCAUCCCACCACAUGAUUAUGCCUGAAGAGCCUUGGUUUUUUG [C13G G36U G60A G110U] | -4.24 |
| GACCAAACUGCCCUCAGAGCUCGAGAACAUCUUCGGAUGCAGAGGAGGCAGGCUUCGGUGGCGCGAUAGCGCCGACGUCCUCAACCUCCAAUGCAUCCCACCACAUGAUGAUGCCUGAAGAGCCUUGGUUUUUUG [U7A A74G] | -0.408 |
| GACCAAUCUGCCCUCUGAGCUCGAGAACAUCUUCGGAUGCAGAGGAGGCGGGCUUCGGUGGCGCGAUAGCGCCAACGUCCUCAACCUCCAAUGCAACCCACCACAUGAUGACGCCUGAAGAGCCUUCGUUUUUUG [A16U A50G U96A U112C G127C] | -2.27 |
| GACCAAUCUGCCCUCAGAGCUCGAGAACAUCUUCCGAUGCAGAGGAGGCAGGCUUCGGUGGCGCGAUAGCGCCAACGUUCUCAACCUCCAAUGCAUCCCACCAAAUGAUGAUGCCUGAAGAGCAUUGGUUUUUUG [G35C C79U C104A C124A] | -5.25 |
| GACCAAUCUGCCCGCAGAGCUCGAGAACAUCUUCGGAUGCAGAGGAGGCAGGCUUAGGUGGCGCGAUAGCGCCAACGUCCUCAACCUCCAAUGCAUCCCACCACAUGAUGAUGCCUGAACAGCCUUGGUUUUUUG [U14G C56A G120C] | -0.0635 |
| GACCAAUCUGCCCUCAGAGCUCGAGAACAUCUUCGGAUGCAGACGAGGCAGGCUUCGGUGCCGCGAUAGCGCCAACGUCCUCAACCUCCAAUGCAUCCCCCCACAAGAUGAUGCCUGAAGAGCCUUGGUUUUUUG [G44C G61C A100C U106A] | -4.28 |
| GACCAAUCUGCCCUCAGAGCUCGAGAACAUCUUCGGAUGCAGAGGAGGCAGGCUUCCGUGGCGCGAUAGCGCCAACGUCCUCAACCUCCAAUGCAUCCCACCACAUGAUGAUGCCUGAAGAGCCUUGGUUUUUUG [G57C] | -0.176 |
| GACCAAUCUGCCCUCCGAGUUCGAGAACAUCUUCGGAUGCAGAGGAGGCAGGCUUCGGUGGCGCGAUAGUGCCAACGUCCUCAACCUCCAAUGCAUCCCACCACAUGAUGAUGCCUGAAGAGCCUUGGUUUUUUG [A16C C20U C70U] | -4.3 |
| GACCAAUCUGCCGUCAGAGCUCGAGAACAUCCUCGGAUGCAGAGGAGGCAGGAUUCGGUGGCGCGAUAGGGCCAACGUCCUCAACCUCCAAUGCAUCCCACCACAUGAUGAUGCCUGAAGAGCCUUGGUUUUUUG [C13G U32C C53A C70G] | -3.88 |
